In patent publication US20210269533A1 (SAMSUNG ELECTRONICS, published 2021):

What was measured:
human c-Met protein [1] = target: T1, human c-Met protein (human, UniProt P08581 25-932, limits assumed); experiment: SPR (Biacore), antibody immobilized on CM5 chip, human c-Met protein injected at 0.39-100 nM
T1 construct: also called c-Met antigen
Experimental: (§1) Affinities of the 4 types of antibodies against c-Met antigen prepared in Example 7 were measured by using a Biacore (GE healthcare). About 80 to 110 RU of each antibody was immobilized on a CM5 chip, 9 different concentrations ranging from 0.39 nM to 100 nM of human c-Met protein, as an antigen, were injected at a rate of 30 ul/min to obtain kₒₙ values and koff values as shown in Table 3. Then, KD values were calculated based thereon.

[2] = target: c-Met on cancer cells (MKN45 gastric cancer cells; NCI-H441 lung cancer cells) (human, UniProt P08581 25-1390); experiment: cell-based or functional assay
c-Met on cancer cells (MKN45 gastric cancer cells; NCI-H441 lung cancer cells), sequence (P08581 25-1390): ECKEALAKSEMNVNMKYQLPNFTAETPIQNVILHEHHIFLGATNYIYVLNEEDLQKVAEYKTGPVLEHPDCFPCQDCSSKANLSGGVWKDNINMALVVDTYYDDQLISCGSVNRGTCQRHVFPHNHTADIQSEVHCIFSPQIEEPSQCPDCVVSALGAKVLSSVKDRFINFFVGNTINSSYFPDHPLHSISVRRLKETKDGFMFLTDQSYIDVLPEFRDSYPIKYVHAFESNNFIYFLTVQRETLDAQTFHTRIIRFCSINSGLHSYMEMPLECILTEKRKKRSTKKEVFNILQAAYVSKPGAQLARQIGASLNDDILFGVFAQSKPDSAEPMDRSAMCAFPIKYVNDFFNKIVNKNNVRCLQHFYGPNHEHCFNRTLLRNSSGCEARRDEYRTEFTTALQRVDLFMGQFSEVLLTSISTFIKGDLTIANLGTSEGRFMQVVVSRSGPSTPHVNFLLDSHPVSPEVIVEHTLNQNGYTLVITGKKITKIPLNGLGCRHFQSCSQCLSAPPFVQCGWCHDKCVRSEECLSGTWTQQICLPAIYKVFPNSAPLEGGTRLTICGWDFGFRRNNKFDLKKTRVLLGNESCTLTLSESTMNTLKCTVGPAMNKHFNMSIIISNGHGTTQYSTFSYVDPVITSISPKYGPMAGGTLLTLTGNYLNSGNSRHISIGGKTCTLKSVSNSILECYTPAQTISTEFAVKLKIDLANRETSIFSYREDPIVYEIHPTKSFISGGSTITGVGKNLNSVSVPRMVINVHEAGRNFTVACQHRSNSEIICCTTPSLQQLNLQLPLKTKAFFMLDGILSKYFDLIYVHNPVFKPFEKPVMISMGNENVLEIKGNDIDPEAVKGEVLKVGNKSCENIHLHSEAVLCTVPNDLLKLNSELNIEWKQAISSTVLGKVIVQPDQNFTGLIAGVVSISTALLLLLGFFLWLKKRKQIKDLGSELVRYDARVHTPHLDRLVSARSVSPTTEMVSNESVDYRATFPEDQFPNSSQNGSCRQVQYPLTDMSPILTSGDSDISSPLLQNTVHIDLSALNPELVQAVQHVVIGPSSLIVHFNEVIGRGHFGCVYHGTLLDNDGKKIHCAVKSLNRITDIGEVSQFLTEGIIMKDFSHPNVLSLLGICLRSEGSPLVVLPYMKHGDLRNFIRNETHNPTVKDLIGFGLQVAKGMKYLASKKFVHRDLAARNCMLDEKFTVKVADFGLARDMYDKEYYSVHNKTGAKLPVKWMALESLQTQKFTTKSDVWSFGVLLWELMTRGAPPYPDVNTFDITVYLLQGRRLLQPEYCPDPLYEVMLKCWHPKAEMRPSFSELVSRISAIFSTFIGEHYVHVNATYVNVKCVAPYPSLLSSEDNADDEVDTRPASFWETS

human c-Met protein [3] = target: T1, human c-Met protein; experiment: SPR (Biacore), ratio of KD values of Table 3
Experimental: as §1

T1 sequence (P08581 25-932 limits assumed): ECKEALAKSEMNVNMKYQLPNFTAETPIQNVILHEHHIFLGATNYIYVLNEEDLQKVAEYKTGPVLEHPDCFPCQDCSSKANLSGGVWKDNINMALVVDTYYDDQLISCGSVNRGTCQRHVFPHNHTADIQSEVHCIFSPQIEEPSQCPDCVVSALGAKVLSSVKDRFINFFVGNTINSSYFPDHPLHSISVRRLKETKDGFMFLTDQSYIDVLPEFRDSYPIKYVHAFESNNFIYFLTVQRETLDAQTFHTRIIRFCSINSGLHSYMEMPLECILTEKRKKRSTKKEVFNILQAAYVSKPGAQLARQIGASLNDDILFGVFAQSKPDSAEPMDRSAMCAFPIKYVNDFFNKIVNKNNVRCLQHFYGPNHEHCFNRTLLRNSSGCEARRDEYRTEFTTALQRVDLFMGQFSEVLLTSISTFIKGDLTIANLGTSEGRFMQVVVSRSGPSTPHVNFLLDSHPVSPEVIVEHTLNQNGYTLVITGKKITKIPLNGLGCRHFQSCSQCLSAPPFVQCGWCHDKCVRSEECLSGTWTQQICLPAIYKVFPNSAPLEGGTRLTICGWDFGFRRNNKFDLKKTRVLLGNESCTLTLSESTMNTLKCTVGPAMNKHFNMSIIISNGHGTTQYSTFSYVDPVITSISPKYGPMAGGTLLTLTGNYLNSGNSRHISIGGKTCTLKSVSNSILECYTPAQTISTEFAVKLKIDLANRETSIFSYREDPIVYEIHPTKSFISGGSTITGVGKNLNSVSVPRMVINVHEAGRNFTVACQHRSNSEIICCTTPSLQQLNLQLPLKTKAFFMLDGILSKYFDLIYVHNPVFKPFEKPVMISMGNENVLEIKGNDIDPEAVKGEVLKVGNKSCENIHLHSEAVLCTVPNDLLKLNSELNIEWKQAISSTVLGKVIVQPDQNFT

Row | Binder | Kd (human c-Met protein [1]) | koff (human c-Met protein [1]) | kon (human c-Met protein [1]) | degree of degradation of c-Met (total c-Met ELISA, MKN45 cells, 5 ug/ml, 24 h), increase compared to huAbF46 [2] | fold improvement of affinity (against huAbF46) (human c-Met protein [3]) | BrdU assay on NCI-H441 cells (agonism); safety improved by, at 10 ug/ml [2]
1 | huAbF46-H4-A5 (antibody, IgG1, V domains shown, IgG1 constant region with U6-HC7 hinge, human kappa light chain; also called IgG from clone L3-5) VH: EVQLVESGGGLVQPGGSLRLSCAASGFTFTDYYMSWVRQAPGKGLEWLGFIRNKANGYTTEYSASVKGRFTISRDNSKNTLYLQMNSLRAEDTAVYYCARDNWFAYWGQGTLVTVSS VL: DIQMTQSPSSLSASVGDRVTITCKSSQSLLASGNQNNYLAWHQQKPGKAPKMLIIWASTRVSGVPSRFSGSGSGTDFTLTISSLQPEDFATYYCQQSYSRPFTFGQGTKVEIKR | 0.42 nM | 0.00024 s⁻¹ | 572000 M⁻¹ s⁻¹ | ~28% |  | 21%
2 | huAbF46-H4-A1 (antibody, V domains shown, also called IgG from clone L3-1) VH: EVQLVESGGGLVQPGGSLRLSCAASGFTFTDYYMSWVRQAPGKGLEWLGFIRNKANGYTTEYSASVKGRFTISRDNSKNTLYLQMNSLRAEDTAVYYCARDNWFAYWGQGTLVTVSS VL: DIQMTQSPSSLSASVGDRVTITCKSSQSLLASGNQNNYLAWHQQKPGKAPKMLIIWASTRVSGVPSRFSGSGSGTDFTLTISSLQPEDFATYYCQQSYSRPYTFGQGTKVEIKR |  |  |  | ~37% | 37 times | 25%

Second part, led by results:

Row | Kd (human c-Met protein [1]) | koff (human c-Met protein [1]) | kon (human c-Met protein [1]) | degree of degradation of c-Met (total c-Met ELISA, MKN45 cells, 5 ug/ml, 24 h), increase compared to huAbF46 [2] | fold improvement of affinity (against huAbF46) (human c-Met protein [3]) | Binder | BrdU assay on NCI-H441 cells (agonism); safety improved by, at 10 ug/ml [2]
3 | 0.34 nM | 0.000143 s⁻¹ | 419000 M⁻¹ s⁻¹ | ~28% |  | huAbF46-H4-A3 (antibody, IgG1, V domains shown, IgG1 constant region with U6-HC7 hinge, human kappa light chain; also called IgG from clone L3-3) VH: EVQLVESGGGLVQPGGSLRLSCAASGFTFTDYYMSWVRQAPGKGLEWLGFIRNKANGYTTEYSASVKGRFTISRDNSKNTLYLQMNSLRAEDTAVYYCARDNWFAYWGQGTLVTVSS VL: DIQMTQSPSSLSASVGDRVTITCKSSQSLLASGNQNNYLAWHQQKPGKAPKMLIIWASTRVSGVPSRFSGSGSGTDFTLTISSLQPEDFATYYCAQSYSHPFSFGQGTKVEIKR | 13%
4 | 0.5 nM | 0.000253 s⁻¹ | 502000 M⁻¹ s⁻¹ | ~28% | 5 times | huAbF46-H4-A2 (antibody, IgG1, V domains shown, IgG1 constant region with U6-HC7 hinge, human kappa light chain; also called IgG from clone L3-2) VH: EVQLVESGGGLVQPGGSLRLSCAASGFTFTDYYMSWVRQAPGKGLEWLGFIRNKANGYTTEYSASVKGRFTISRDNSKNTLYLQMNSLRAEDTAVYYCARDNWFAYWGQGTLVTVSS VL: DIQMTQSPSSLSASVGDRVTITCKSSQSLLASGNQNNYLAWHQQKPGKAPKMLIIWASTRVSGVPSRFSGSGSGTDFTLTISSLQPEDFATYYCGQSYSRPLTFGQGTKVEIKR | 28%
